Biological target: chemically synthesized dimannosylated peptide (DM), 12mer peptide from hemagglutinin (HA) with diman

Substance: CVN2L0, a tandem-linked dimeric CVN2 with zero-linker length (tandem repeat of two cyanovirin-N molecules)
- Kd: 3.94 µM

From PMC11112747, “Cyanovirin-N Binding to N-Acetyl-D-glucosamine Requires Carbohydrate-Binding Sites on Two Different Protomers” (Biochemistry, 2024)
